1 molecule from publication PMC6638966, “The demethylase NMAD-1 regulates DNA replication and repair in the Caenorhabditis elegans germline” (PLoS Genetics, 2019) can be followed below.

For the experiment, the target named is T1, GST-tagged TOP-2 (C. elegans, UniProt Q23670 1-1520).
T1 construct: TOP-2, topoisomerase II of C. elegans; also called topoisomerase II; source: E. coli BL21, purified (glutathione sepharose 4B)
The experiment in a line: pull-down; 3 μg GST-tagged protein on glutathione sepharose 4B beads with 1 μg HIS-tagged NMAD-1 in TAP wash buffer (50 mM Tris-HCl pH 8.0, 100 mM KCl), 1 h at 4 °C; blot probed with HIS antibody. To be noted: both partners purified.

T1 sequence (Q23670 whole entry): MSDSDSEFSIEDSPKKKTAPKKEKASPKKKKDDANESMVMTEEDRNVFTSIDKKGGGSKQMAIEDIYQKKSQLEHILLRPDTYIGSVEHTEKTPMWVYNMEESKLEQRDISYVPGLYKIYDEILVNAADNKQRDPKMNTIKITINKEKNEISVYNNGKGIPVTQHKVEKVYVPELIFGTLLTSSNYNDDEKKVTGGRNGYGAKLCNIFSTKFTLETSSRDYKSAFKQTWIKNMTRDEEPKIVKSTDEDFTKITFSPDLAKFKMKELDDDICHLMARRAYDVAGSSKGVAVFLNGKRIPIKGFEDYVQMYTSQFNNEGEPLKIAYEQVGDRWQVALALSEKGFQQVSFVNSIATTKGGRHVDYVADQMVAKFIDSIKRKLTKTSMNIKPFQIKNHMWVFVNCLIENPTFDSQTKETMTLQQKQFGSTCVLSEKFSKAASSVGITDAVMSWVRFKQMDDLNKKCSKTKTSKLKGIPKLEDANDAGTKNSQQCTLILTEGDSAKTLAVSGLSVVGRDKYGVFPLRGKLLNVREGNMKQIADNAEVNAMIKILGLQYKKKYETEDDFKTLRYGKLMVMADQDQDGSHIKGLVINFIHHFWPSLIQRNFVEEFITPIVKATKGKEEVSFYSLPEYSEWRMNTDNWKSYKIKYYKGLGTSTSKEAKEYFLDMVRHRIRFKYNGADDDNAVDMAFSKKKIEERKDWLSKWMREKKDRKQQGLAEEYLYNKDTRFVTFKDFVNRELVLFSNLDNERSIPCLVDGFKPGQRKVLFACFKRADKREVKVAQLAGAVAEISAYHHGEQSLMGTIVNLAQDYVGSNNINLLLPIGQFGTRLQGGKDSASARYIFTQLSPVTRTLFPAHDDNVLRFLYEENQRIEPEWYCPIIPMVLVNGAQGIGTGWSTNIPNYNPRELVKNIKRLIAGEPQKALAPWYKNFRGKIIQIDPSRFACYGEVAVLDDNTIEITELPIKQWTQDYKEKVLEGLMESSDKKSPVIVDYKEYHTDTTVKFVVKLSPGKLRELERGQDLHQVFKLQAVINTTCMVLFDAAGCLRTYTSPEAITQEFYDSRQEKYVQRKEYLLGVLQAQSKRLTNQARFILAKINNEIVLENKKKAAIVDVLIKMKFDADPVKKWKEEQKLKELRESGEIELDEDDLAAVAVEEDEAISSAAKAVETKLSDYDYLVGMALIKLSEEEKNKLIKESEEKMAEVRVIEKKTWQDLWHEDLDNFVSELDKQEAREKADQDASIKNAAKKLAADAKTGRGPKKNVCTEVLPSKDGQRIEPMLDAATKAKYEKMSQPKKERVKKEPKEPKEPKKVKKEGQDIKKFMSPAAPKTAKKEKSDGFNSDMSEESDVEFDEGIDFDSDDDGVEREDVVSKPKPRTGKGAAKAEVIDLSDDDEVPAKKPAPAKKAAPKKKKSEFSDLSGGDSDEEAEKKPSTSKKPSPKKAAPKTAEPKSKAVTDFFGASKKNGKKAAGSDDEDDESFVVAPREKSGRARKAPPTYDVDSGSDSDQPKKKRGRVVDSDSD

B1: recombinant His-tagged NMAD-1 (enzyme, C. elegans, UniProt Q8MNT9 1-291, looked up)
chain: MGSAEQACGCKGARFCALCETTERVKKLRVVEDKHVNYKVFIYDHIRQIAIPTTNLNSQSSLEDIIDESTSCQSVSTDGSIEIDGLTLIHNFLSESEESKILNMIDTVEWAQSQSGRRKQDYGPKVNFKHKKVKTDTFVGMPEYADMLLNKMSEYDVKKLGNYQPFEMCNLEYEEVKKSAIEMHQDDMWIWGNRLISINLINGSVMTLSNDNKSFLCYVHMPHRSLLCMADECRYDWKHGVLAHHIRGRRIALTMREAAKDFAEGGELYEKYGAELIRLGNIRVPLSKTSV
notes: NMAD-1 (F09F7.7) of C. elegans; also called HIS:NMAD-1; source: E. coli BL21, purified (Ni-NTA)
As to B1, the binding result was “binds”.
